From patent publication US20260042834A1 (HBM ALPHA THERAPEUTICS, published 2026)
Where two headings read alike, the source gives them in different places. Values belong to the binder of their own block, whether it stands above or below them.

Legend:
[1] = target: T1, corticotropin-releasing hormone (CRH) peptide (human and mouse, not fully specified); assay: cell-based or functional assay
T1 peptide: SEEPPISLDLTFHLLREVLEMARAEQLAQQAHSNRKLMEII

CRH (CT-Biotin) [2] = target: T2, CRH (CT-Biotin) (human and mouse, biotin on the added C-terminal K (-K-Biotin)); assay: ELISA on streptavidin-captured CRH (CT biotin), OD450
T2 construct: also called Peptide 4 (CRH-Biotin); C-terminally biotinylated corticotropin-releasing hormone
T2 peptide: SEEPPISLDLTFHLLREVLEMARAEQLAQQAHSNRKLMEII
Protocol: (§1) Streptavidin (Thermo, Cat: 21125) was diluted in PBS to a concentration of 2 μg/ml. 100 μl of diluted streptavidin was added per well to ELISA microplates, and the plates were incubated overnight at 4° C. […] 100 μL of 3,3′,5,5′-tetramethylbenzidine (TMB) substrate (Biopanda, Cat: TMB-S-003) was added, and the plates were incubated at room temperature for 15 minutes. 100 μL of ELISA stopping solution (Solarbio, Cat #: C1058) was added to terminate the reaction, and the optical density at 450 nm (OD450 nm) was determined by an ELISA plate reader (Molecular Devices, Spectra max 384 plus).

CRH (NT-Biotin) [3] = target: T3, CRH (NT-Biotin) (human and mouse, not fully specified; biotin at the N-terminus); assay: ELISA on streptavidin-captured CRH (NT biotin), OD450
T3 construct: also called Biotin-CRH; N-terminally biotinylated corticotropin-releasing hormone
T3 peptide: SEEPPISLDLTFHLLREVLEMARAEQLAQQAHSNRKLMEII
Protocol: as §1

CRH (CT-Biotin) [4] = target: T2, CRH (CT-Biotin); assay: ELISA on streptavidin-captured CRH (CT biotin), OD450
Protocol: as §1

CRH (NT-Biotin) [5] = target: T3, CRH (NT-Biotin); assay: ELISA on streptavidin-captured CRH (NT biotin), OD450
Protocol: as §1

CRH (CT-Biotin) [6] = target: T2, CRH (CT-Biotin); assay: ELISA, C-terminally biotinylated CRH on streptavidin-coated plate
Protocol: as §1

CRH (NT-Biotin) [7] = target: T3, CRH (NT-Biotin); assay: ELISA, N-terminally biotinylated CRH on streptavidin-coated plate
Protocol: as §1

human UCN1 peptide = target: T4, human UCN1 peptide (human, UniProt P55089 83-122, not fully specified; biotin at N- or C-terminus in the ELISA); assay: cell-based or functional assay
T4 peptide (looked up): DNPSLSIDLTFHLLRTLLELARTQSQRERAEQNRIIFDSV

human UCN2 peptide [8] = target: T5, human UCN2 peptide (human, UniProt Q96RP3 72-109, limits assumed, not fully specified; biotin at N- or C-terminus in the ELISA); assay: ELISA, biotinylated hUCN2 on streptavidin plates
T5 construct: also called hUCN2; hUCN2 (NT Biotin)
T5 peptide (looked up): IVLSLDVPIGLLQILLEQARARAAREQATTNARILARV
Protocol: (§2) Streptavidin (Thermo, Cat: 21125) was diluted in PBS with a concentration of 2 μg/mL. 100 μL of diluted streptavidin was added per well to ELISA microplates, and the plates were incubated overnight at 4° C. Plates were blocked with ELISA blocking solution (containing 2% w/v BSA, 0.05% (v/v) Tween-20, pH 7.4 PBS buffer) at 37° C. for 1 hour, and then incubated with either 1 μg/mL hUCN1 (NT Biotin), hUCN1 (CT Biotin), hUCN2 (NT Biotin), hUCN2 (CT Biotin), hUCN3 (NT Biotin), or hUCN3 (CT Biotin) for 1 hour at 37° C. […] 100 μl of TMB Substrate (Biopanda, Cat: TMB-S-003) was added, and the plates were incubated at room temperature for 15 minutes. 100 μL of ELISA stopping solution (Solarbio, Cat #: C1058) was then added to terminate the reaction, and the OD450 nm was determined by an ELISA plate reader (Molecular Devices, Spectra max 384 plus).

human UCN3 peptide [9] = target: T6, human UCN3 peptide (human, UniProt Q969E3 120-157, not fully specified; biotin at N- or C-terminus in the ELISA); assay: ELISA, biotinylated hUCN3 on streptavidin plates
T6 construct: also called hUCN3; hUCN3 (NT Biotin)
T6 peptide (looked up): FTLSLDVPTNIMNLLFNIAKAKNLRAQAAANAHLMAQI
Protocol: as §2

biotinylated CRH = target: T7, biotinylated CRH (human and mouse, not fully specified; biotinylated, position not stated); assay: Octet BLI, biotinylated CRH on SA sensor
T7 construct: also called Biotin-CRH; biotin-labeled CRH
T7 peptide: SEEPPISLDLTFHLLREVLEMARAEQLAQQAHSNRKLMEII

N-Terminal CRH = target: T8, N-Terminal CRH (human and mouse, C-terminal K-Biotin); assay: ELISA, biotin peptide on streptavidin plate
T8 construct: also called N-Ter-CRH (CT-Bion)
T8 peptide: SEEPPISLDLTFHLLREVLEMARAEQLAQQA
Summary of the method: (§3)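 First, streptavidin (2 μg/ml in PBS) is coated onto wells overnight at 4° C. Then, following peptide capture and binding, TMB is added for 15 minutes at room temperature. Finally, the reaction is stopped and OD450 nm is measured.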

CRH (CT Biotin) [10] = target: T9, CRH (CT Biotin) (human and mouse, C-terminal K-Biotin); assay: ELISA on streptavidin-captured CRH (CT biotin), OD450
T9 construct: also called Peptide 4 (CRH-Biotin)
T9 peptide: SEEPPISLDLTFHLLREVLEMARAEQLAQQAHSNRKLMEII
Protocol: as §1

CRH (NT Biotin) [11] = target: T10, CRH (NT Biotin) (human and mouse, not fully specified; biotin at the N-terminus); assay: ELISA on streptavidin-captured CRH (NT biotin), OD450
T10 peptide: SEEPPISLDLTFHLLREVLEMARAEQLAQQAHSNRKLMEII
Protocol: as §1

hUCN1 (NT Biotin) [12] = target: T11, hUCN1 (NT Biotin) (human, UniProt P55089 83-122, biotin at the N-terminus); assay: ELISA on streptavidin-captured hUCN1 (NT biotin), OD450
T11 construct: also called human UCN1 (NT biotin)
T11 peptide (looked up): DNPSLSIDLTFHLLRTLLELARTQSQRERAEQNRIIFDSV
Protocol: as §1

human UCN2 peptide [13] = target: T5, human UCN2 peptide; assay: ELISA on streptavidin-captured hUCN2 (NT biotin) and hUCN2 (CT biotin), mAb at 100 nM and 10 nM, OD450
Protocol: as §2

human UCN3 peptide [14] = target: T6, human UCN3 peptide; assay: ELISA on streptavidin-captured hUCN3 (NT biotin) and hUCN3 (CT biotin), mAb at 100 nM and 10 nM, OD450
Protocol: as §2

[15] = target: T12, corticotropin-releasing hormone (CRH) peptide (human and mouse, not fully specified); assay: cell-based or functional assay
T12 peptide: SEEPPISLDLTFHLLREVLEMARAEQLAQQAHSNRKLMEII

CRH (NT Biotin) [16] = target: T10, CRH (NT Biotin); assay: ELISA, biotin peptide on streptavidin plate
Summary of the method: as §3

CRH (CT Biotin) [17] = target: T9, CRH (CT Biotin); assay: ELISA, biotin peptide on streptavidin plate
Summary of the method: as §3

hUCN1 (CT Biotin) = target: T13, hUCN1 (CT Biotin) (human, UniProt P55089 83-122, biotin at the C-terminus); assay: ELISA on streptavidin-captured hUCN1 (CT biotin), mAb at 100 nM and 10 nM; axis labelled RLU, scale 0-4
T13 construct: also called human UCN1 (CT biotin)
T13 peptide (looked up): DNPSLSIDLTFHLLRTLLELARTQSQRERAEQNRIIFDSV
Protocol: as §2, with “100 μL of ELISA stopping solution (Solarbio, Cat #: C1058) was then added to terminate the reaction, and the OD450 nm was determined by an ELISA plate reader (Molecular Devices, Spectra max 384 plus).” left out

hUCN1 (NT Biotin) [18] = target: T11, hUCN1 (NT Biotin); assay: ELISA on streptavidin-captured hUCN1 (NT biotin), mAb at 100 nM and 10 nM; axis labelled RLU, scale 0-4
Protocol: as §2

human UCN2 peptide [19] = target: T5, human UCN2 peptide; assay: ELISA on streptavidin-captured hUCN2 (NT biotin) and hUCN2 (CT biotin), mAb at 100 nM and 10 nM; axis labelled RLU, scale 0-4
Summary of the method: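 Streptavidin-coated plates (2 μg/mL, overnight 4° C.), blocked with 2% BSA/0.05% Tween-20 PBS pH 7.4, then loaded with 1 μg/mL N- or C-terminally biotinylated hUCN peptide, 1 hour at 37° C. Detection by TMB substrate, 15 minutes at room temperature, stopped, OD450 nm read.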

human UCN3 peptide [20] = target: T6, human UCN3 peptide; assay: ELISA on streptavidin-captured hUCN3 (NT biotin) and hUCN3 (CT biotin), mAb at 100 nM and 10 nM; axis labelled RLU, scale 0-4
Protocol: as §2

hCRHR1 Reporter IC50 [1]: 3.69 nM | EC50 (read off the curve) (CRH (CT-Biotin) [2]): ~0.01 nM | EC50 (read off the curve) (CRH (NT-Biotin) [3]): ~0.05 nM | EC50 (read off the curve) (CRH (CT-Biotin) [4]): ~0.03 nM | EC50 (read off the curve) (CRH (NT-Biotin) [5]): ~0.01 nM | EC50 (CRH (CT-Biotin) [6]): 0.032 nM | EC50 (CRH (NT-Biotin) [7]): 0.029 nM
B1: PR004290 (antibody, human IgG1, kappa, V domains shown)
VH: EVQLVESGGVLVQPGGSLRLSCAASGFTFSSYWMTWVRQAPGKGLEWVANIKQDGSEKYYVDSVKGRFTISRDNAKNSLFLQMNSLRAEDTAVYYCARTLIFDYWGQGTLVTVSS
VL: DIVMTQSPLSLPVTPGEPASISCRSSQSLLHSTGYNSLEWYLQKPGQSPQLLIYLGSNRASGVPDRFSGSGSGTDFTLKISRVEAEDVGIYYCMQTLQTPITFGQGTRLEIKR
notes: Expressed recombinantly with human IgG1 wildtype Fc; also called Hybridoma Clone 28b3; Series 1 mAb

potency on hUCN1-induced against CRH-induced hCRHR1 reporter activity (human UCN1 peptide): 267 fold lower | binding result (human UCN2 peptide [8]): no binding (tested: 100 nM) | binding result (human UCN3 peptide [9]): no binding (tested: 100 nM)
B2: PR302341-55 (antibody, human IgG1, kappa, V domains shown)
VH: QVQLVQSGAEVKKPGASVKVSCKASGYTFTDYFMKWVRQAPGQRLEWMGVINPNNADIFYNQKFKGRVTITRDTSASTAYMELSSLRSEDTAVYYCARGTDRALFAYWGQGTLVTVSS
VL: DVVMTQSPLSLPVTLGQPASISCRSGQSIVHSDGNTYLEWYQQRPGQSPRLLIYKVSNRFSGVPDRFSGSGSGTDFTLKISRVEAEDLGVYYCFQGSHIPWTFGGGTKVEIKR
notes: Humanized, PTM-removed variant of PR302341

Kd (biotinylated CRH): < 0.001 nM | koff (biotinylated CRH): < 1e-07 s⁻¹ | kon (biotinylated CRH): 126000 M⁻¹ s⁻¹ | EC50 (N-Terminal CRH): 0.028 nM | EC50 (read off the curve) (CRH (CT Biotin) [10]): ~0.03 nM | EC50 (read off the curve) (CRH (NT Biotin) [11]): ~0.03 nM | EC50 (read off the curve) (hUCN1 (NT Biotin) [12]): ~0.1 nM | binding result (human UCN2 peptide [13]): no binding (tested: 100 nM) | binding result (human UCN3 peptide [14]): no binding (tested: 100 nM)
B3: PR302309-18 (antibody, human IgG1, kappa, V domains shown)
VH: QVQLVQSGAEVKKPGASVKVSCKASGYTFTNYGMNWVRQAPGQRLEWMGWINTYTGEPIYTDDFKGRVTITRDTSASTAYMELSSLRSEDTAVYYCARSTMITTGGVFAYWGQGTLVTVSS
VL: DVVMTQSPLSLPVTLGQPASISCRSSQTIVHSDGNTYLEWYQQRPGQSPRLLIYKVSNRFSGVPDRFSGSGSGTDFTLKISRVEAEDLGVYYCFQGSHVPWTFGGGTKVEIKR
notes: Humanized variant of PR302309

CHO-CRE-hCRHR1 0.5 nM CRH IC50 [15]: 1.1 nM | Kd (biotinylated CRH): < 0.001 nM | koff (biotinylated CRH): < 1e-07 s⁻¹ | kon (biotinylated CRH): 329000 M⁻¹ s⁻¹ | EC50 (CRH (NT Biotin) [16]): 0.029 nM | EC50 (CRH (CT Biotin) [17]): 0.028 nM | EC50 (N-Terminal CRH): 0.029 nM | binding result (hUCN1 (CT Biotin)): no binding (tested: 100 nM) | binding result (hUCN1 (NT Biotin) [18]): no binding (tested: 100 nM) | binding result (human UCN2 peptide [19]): no binding (tested: 100 nM) | binding result (human UCN3 peptide [20]): no binding (tested: 100 nM)
B4: PR302334-26 (antibody, human IgG1, kappa, V domains shown)
VH: EVQLVESGGGLVQPGGSLRLSCAASGFTFSTYAMSWVRQAPGKGLEWVASIRSGGTTYYPDSVKGRFTISRDNSKNSLYLQMNSLRAEDTAVYYCTRGIDWGQGTTVTVSS
VL: DIVMTQSPDSLAVSLGERATINCKASQSVNNDVAWYQQKPGQPPRLLIYYASNRYTGVPDRFSGSGSGTDFTLTISSLQAEDLAVYFCQQDYSSWTFGGGTKVEIKR
notes: Humanized variant of PR302334
